Here are results for one molecule from patent US20230192900A1 (published 2023).

For one assay, the target named is T1, human CD9 (human, UniProt P21926 2-228).
T1 construct: The cells expressing full-length CD9 that were used to select the antibodies are not described; In the functional assays CD9 stands on human PBMC; also called full-length cell-expressed CD9; Tetraspanin-29
T1 sequence: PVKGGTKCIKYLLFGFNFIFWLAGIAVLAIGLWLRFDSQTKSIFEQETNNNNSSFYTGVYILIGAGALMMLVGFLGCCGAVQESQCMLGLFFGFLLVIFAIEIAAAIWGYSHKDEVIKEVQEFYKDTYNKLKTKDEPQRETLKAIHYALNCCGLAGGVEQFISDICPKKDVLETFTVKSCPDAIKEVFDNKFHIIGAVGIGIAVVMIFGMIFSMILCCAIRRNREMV
In words: selection on cells expressing full-length CD9; method not described.

Assay [1] has as its target T2, recombinant human CD9 long extracellular loop 2-human Fc fusion protein (10015-CD, R&D Systems) (human, UniProt P21926 112-195).
T2 construct: Bought reagent; also called CD9-loop2; long extracellular loop 2 peptide; not shown: human Fc
T2 sequence: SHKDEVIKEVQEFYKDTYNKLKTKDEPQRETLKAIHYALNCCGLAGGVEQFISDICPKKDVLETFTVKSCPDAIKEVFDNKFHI
In words: biolayer interferometry (Octet RED384), CD9 loop 2-human Fc captured on AHC biosensors, Fab at 10 µg/mL. From the text:
CD9 contains two extracellular loops: a short extracellular loop (loop 1: 34-55 in SEQ ID NO:2) and a long extracellular loop (loop 2: 112-195 in SEQ ID NO:2). We used biolayer interferometry to assess binding of our panel of CD9 Fab-Y antibodies (selected for their ability to bind full-length cell-expressed CD9) to the long extracellular loop 2 peptide, using the Octet® RED384 System (ForteBio) with Anti-hlgG Fc Capture (AHC) Biosensors (ForteBio) at room temperature. Firstly, an array of 8 sensors was dipped in kinetics buffer (PBS 0.1%, BSA 0.02%, Tween 20) for 120 seconds to provide a baseline signal. Sensors were then moved to wells containing 200 μl of recombinant human CD9 long extracellular loop 2-human Fc fusion protein (10015-CD, R&D Systems®) at 2 μg/mL in kinetics buffer to immobilize the protein to the biosensor (100 seconds), followed by a second baseline step (180 seconds) in kinetics buffer to equilibrate the biosensors now coated with the CD9 long extracellular loop 2-human Fc fusion protein. No detachment of the peptide was observed during this step. Sensors were then dipped in wells containing one of the anti-CD9 Fab (10 μg/mL) to evaluate association of each antibody to CD9-loop2 (120 seconds), followed by dissociation in kinetics buffer (600 seconds). Anti-CD137 Fab-Y (11175) was used as negative control during the antibody association step. […]

B1: anti-CD9 Fab-Y antibody 7272 (Fab, V domains shown)
VH: QSLEESGGRLVTPGTPLTLTCTVSGFSLSSYAMGWVRQAPGKGLEWIGAIGSITATGYARWAKGRFSISKTSTTVDLKMTSPTTEDTATYFCAREIYVGSAYAFDIWGPGTLVTVSS
VL: AYDMTQTPASVEVAVGDTVTIKCQASQSISNYLAWYQQKPGQPPKLLIYLASTLASGVPSRFKGSGSGTEFTLTISDLECADAATYYCQQGYIDNVNKGFGGGTEVVVK
notes: also called VR7272
In the case of B1, the binding result (in the assay with human CD9; in assay [1]) was “binds” in each case.
